Conditions in all cases: remark: other sources report otherwise
Assay [1] has as its target T1, recombinant soluble homotrimeric HA of A/Netherlands/219/03 (H7N7) (Influenza A virus A/Netherlands/219/03(H7N7)). Briefly: trimeric HA microarray, transfection supernatant set 4.
Assay [2] addresses recombinant soluble homotrimeric HA of A/California/4/09 (H1N1) (Influenza A virus A/California/04/2009(H1N1)). The assay can be described thus: trimeric HA microarray, transfection supernatant set 5.
Assay [3] addresses recombinant soluble homotrimeric HA of A/Egypt/3300-NAMRU3/08 (H5N1) (Influenza A virus A/Egypt/3300-NAMRU3/2008(H5N1)). Described as above.
The target in assay [4] is recombinant soluble homotrimeric HA of A/Wisconsin/67/05 (H3N2) (Influenza A virus A/Wisconsin/67/2005(H3N2)). The description is as above.
In assay [5] the target is recombinant soluble homotrimeric HA of A/Anhui/1/05 (H5N1) (Influenza A virus A/Anhui/1/2005(H5N1)). Described as above.
Assay [6] deals with recombinant soluble homotrimeric HA of A/Indonesia/5/05 (H5N1) (Influenza A virus A/Indonesia/5/2005(H5N1)). The description is as above.
Assay [7] addresses recombinant soluble homotrimeric HA of A/Hong Kong/156/97 (H5N1) (Influenza A virus A/Hong Kong/156/97 (H5N1)). The description is as above.
For assay [8], the target named is recombinant soluble homotrimeric HA of A/swine/Ontario/01911-2/99 (H4N6) (Influenza A virus A/Swine/Ontario/01911-2/99 (H4N6)). The description is as above.
Assay [9] concerns the target recombinant soluble homotrimeric HA of A/Japan/305/57 (H2N2) (Influenza A virus A/Japan/305/1957(H2N2)). Described as above.
Assay [10] addresses recombinant soluble homotrimeric HA of A/duck/Yangzhou/02/05 (H8N4) (Influenza A virus A/duck/Yangzhou/02/2005(H8N4)). The assay is described as above.
The target of assay [11] is recombinant soluble homotrimeric HA of A/chicken/Vietnam/NCVD-016/08 (H5N1) (Influenza A virus A/chicken/Vietnam/NCVD-016/2008(H5N1)). The assay is described as above.
Assay [12] deals with recombinant soluble homotrimeric HA of A/northern shoveler/California/HKWF115/07 (H6) (Influenza A virus A/northern shoveler/California/HKWF115/2007(H6N1)). Described as above.
Assay [13] concerns the target T1, recombinant soluble homotrimeric HA of …. Described as above.
Assay [14] addresses recombinant soluble homotrimeric HA of A/Vietnam/1203/04 (H5N1) (Influenza A virus A/VietNam/1203/2004(H5N1)). The assay is described as above.
Assay [15] has as its target recombinant soluble homotrimeric HA of A/Solomon Islands/3/06 (H1N1) (Influenza A virus A/Solomon Islands/3/2006(H1N1)). Described as above.
Assay [16] addresses recombinant soluble homotrimeric HA, A/swine/Ontario/01911-2/99 H4N6 (Influenza A virus A/Swine/Ontario/01911-2/99 (H4N6)). Briefly: microarray, transfection SN IgG, trimeric HA.
The target of assay [17] is recombinant soluble homotrimeric HA, A/Netherlands/219/03 H7N7 (Influenza A virus A/Netherlands/219/03(H7N7)). Briefly: microarray, transfection SN IgG, trimeric HA.

The values that follow come from US20150086555A1.

B1: TCN-535 (5246_P19) (antibody, V domains shown)
VH: QVQLVQSGSEVKKPGTSVKVSCTASGSVFTNYGISWVRQAPGQGLEWMGGIIPLFGAAKYAQKFQGRVTITADESTKTVYMELSRLTSKDTAIYFCAKAPRVYEYYFDQWGQGTPVTVSS
VL: EIVLTQSPGTLSLSPGERATLSCRASQSVSSSQLAWYQQKPGQAPRLIIYGASTRATGIPDRFSGSGSGTDFTLTIGRLEPEDFAVFFCQQYSTSPPTFGQGTKVDFK
Turning to B1, the Trimeric HA Binding: RLU in assay [1] was determined as 159 RLU.

B2: TCN-546 (5089_L08) (antibody, V domains shown)
VH: QVQLQQWGAGLLKPSETLSLTCGVYGGSLSDYYWSWIRQPPGKGLEWIGEINHSGGTNYNPSLKRRVTISVDTSKKQFSLKMNSVTAADTAVYYCARGTDPDTEVYCRAGNCAAFDFWGQGTLVTVSS
VL: EIVLTQSPGTLSLSPGERATLSCRASHFVIGRAVAWYQQKPGQAPRLLIYGASSRATGIPDRFSGSGSGTDFTLTISRLETEDFAVFYCQHYGSSPRYAFGQGTKLEIK
With B2, the Trimeric HA Binding: RLU in assay [2] came to 1080 RLU; in assay [3] it was 53000 RLU; in assay [4], 28500 RLU; in assay [5] it was 33300 RLU; in [6], 40900 RLU; in assay [7], 1240 RLU. Moreover, the Trimeric HA Binding: RLU in assay [8] is 4610 RLU; in [9], 1730 RLU; in [10], 11400 RLU; in assay [11] it was 2940 RLU; in assay [12] it was 2430 RLU; in assay [13] it was 3740 RLU. In addition, the Trimeric HA Binding: RLU in assay [14] worked out at 47100 RLU.

B3: TCN-540 (5060_F05) (antibody, V domains shown)
VH: QVQLVQSGGGVVQPGRSLRLSCAASGFTFSSYAMHWVRQAPGKGLEWVAIISYDGNDQYYTDSVKGRFTISRDSSKVYLQMHRLRPEDTAVYYCAKEFETSGYFHGSFDYWGQGILVTVSS
VL: QSALTQPASVSGSPGQSITISCTGTSSDVGGYNYVSWYQQHPGKAPKLLIYEVTNWPSGVSNRFSGSKSGNTASLTISGLQAEDEADYYCSSYAGSSTWVFGGGTRVTVL
As for B3, the Trimeric HA Binding: RLU in [2] was 984 RLU; in assay [3] it was 15600 RLU; in assay [4] it was 53000 RLU; in assay [5], 2190 RLU; in assay [6], 2570 RLU; in assay [7], 1550 RLU. The Trimeric HA Binding: RLU in assay [15] was 1180 RLU; in assay [9], 47900 RLU; in assay [10], 6080 RLU; in assay [11], 1510 RLU; in [12], 2460 RLU; in assay [13] it was 4390 RLU. Further, the Trimeric HA Binding: RLU in assay [14] is 42500 RLU.

B4: TCN-536 (5095_N01) (antibody, V domains shown)
VH: QVQLQQWGAGLLKPSETLSLTCAVYGGSFSVSGYYWSWIRQPPGRGLEWIGEISHGGSTNYNPSLKSRVTISVDTTKNQFSLRLSSVTAADTAVYYCARGTDPDTEVYCRVGNCAAFDYWGQGSLVTVSS
VL: EIILAQSPGTLSLSPGERATLSCRASQFVSTRSLAWYQQRPGQAPRLLIYGASSRATGIPDRFSGSGSGTDFTLTISRLEPEDFAVYYCQHYGYSPRYAFGQGSKVEIK
In the case of B4, the Trimeric HA Binding: RLU in assay [1] amounted to 246 RLU.

B5: TCN-534 (5249_B02) (antibody, V domains shown)
VH: QVQLVQSGAEVKKPGSSVKVSCRESGGTFNGYTITWVRQAPGQGLEWMGGIIPMMGTVNYAQKLQGRVTITTDYFTKTAYMDLNNLRSEDTAMYYCVKIRYTGQQLLWGQGTLVTVSS
VL: DIQMTQSPSTLSASIGDRVTITCRASQSIASWLAWYQQKPGKAPKLLIYEAVNLESGVPSRFSGSGSGTDFTLTISSLQPDDFATYFCQHYGTISQTFGGGTKVEIK
Consider B5, for which the Trimeric HA Binding: RLU in assay [1] is 361 RLU.

B6: TCN-538 (3206_O17) (antibody, V domains shown)
VH: QITLKESGPTLVKPTQTLTLTCVFSGFSLSITGVRVGWIRQPPGKALEWLALISWDDEKHYSPSLQSRLTITKDTSKNQVVLTMTNLDPVDTATYYCARSTDRGHVLRYFGWMLPGDAFDVWGQGTMVTVSS
VL: DIVMTQSPDFLPVSLGERATINCKSSQRVLYSSNNKNYLAWYQLKPGQPPKLIIYWASTRESGVPDRFSGSGSGTEFTLTISSLQAEDVAVYYCQQYYSRPYTFGQGTKLEIK
With B6, the Trimeric HA Binding: RLU came out at 16000 RLU in [2]; 41000 RLU in [3]; 13700 RLU in assay [6]; 5170 RLU in assay [7]; 1960 RLU in assay [15]; 3350 RLU in [8]. The Trimeric HA Binding: RLU turned out to be 6620 RLU in [9]; 4060 RLU in assay [10]; 2950 RLU in assay [11]; 8900 RLU in [12]; 4370 RLU in assay [13]; 52400 RLU in assay [14].

B7: TCN-552 (5249_I23) (antibody, V domains shown)
VH: QVQVVQSGAEVKKPGSSVRVSCQASGGTFMNYAIIWVRRAPGQGLEWMGGIIPVFPTPNYAQMFQGRVTISTDESRSTSFLELTNLRYEDTAVYYCARRIYHGGNSGFDFWGQGTLVTVSS
VL: EIVLTQSPATLSLSPGERATLSCRASQSVGNYLAWYQQKPGQAPRLLIYDSSNRAPGIPARFSGSGSGTDFTLTISSLAPEDFAVYYCQQRSKWPPMYSFGHGTKLEIK
Consider B7, for which the Trimeric HA Binding: RLU is 9080 RLU in [16] and 7420 RLU in [17].

B8: TCN-557 (5081_A04) (antibody, V domains shown)
VH: QVQLVQSGAEVKKPGASVKVSCKASGHTFTGYYIHWVRQAPGQGLEWMGWINPDSGATSSAQNFQGRVTMTGDTSSSTAYMELSRLSFDDTAVYYCARVLFTSPFDFWGEGTLVTVSS
VL: QAVVTQEPSLAVSPGGTVTLTCGSSTGAVTRGHYPYWFQQKPGQAPRALIYDSAGNRHSWTPARFSGSLLGGKAALTLSGAQPEDEAEYYCLLSYSGVWVFGGGTKLTVL
For B8, the Trimeric HA Binding: RLU in assay [16] was 41500 RLU; in assay [17], 53700 RLU.

B9: TCN-553 (5261_C18) (antibody, V domains shown)
VH: QVQVVQSGTEVKKPGSSVKVSCQTSGGRFMSYAITWVRQAPGQGLEWMGGIVPVFGTANYAQKFQGRVTITTDDSTRTAYMELSSLRSEDTAVYYCGFRYGSGYGFDSWGQGTLVTVSS
VL: EIVLTQSPGTLSLSPGERATLSCRASQSVSSSYLAWYQKKPGQAPRLLIYGASTRATGIPDRFTGSGSGTDFTLSISRLEPEDFAVYYCQHFGTSVFTFGGGTKVEIK
Regarding B9, the Trimeric HA Binding: RLU in [16] is 12200 RLU; in [17], 7530 RLU.

B10: TCN-550 (5096_F06) (antibody, V domains shown)
VH: QVQLQESGPGLVKPSETLSLTCTVSGASINSHYWSWIRQPPGKGLEWIGYVYYSGSTTYNPSLKSRVTLSVDTSKNQFSLNLSSVTAADTAFYYCARHPYDVLTGSGDWFDPWGQGTLVTVSS
VL: SYVLTQAPSVSVAPGQTARITCGGNAIGSKKVHWYQHKAGQAPVLVVYDDTDRPSGIPERFSGSNSWSTATLTINRVEAGDEADYYCQVWDFTIDHVVFGGGTKLTVL
As to B10, the Trimeric HA Binding: RLU in assay [16] stood at 1700 RLU; in [17] it was 3250 RLU.

B11: TCN-539 (5056_A08) (antibody, V domains shown)
VH: QVQLVESGGGVVQPGRSLRLSCAASEITFITYAMHWVRQAPGKGLEWVALISDDGSNKFYADSVKGRFTISRDNSKNTLYLQMNSLRAEDTAAYYCAREGVYFDSGTYRGYFDYWGQETLVTVSS
VL: EIVLTQSPATLSLSPGERATLSCRASQSVSSYLAWYQQKPGQAPRLLIYDASNRATGIPARFSGSGSGTDFTLTISSLEPEDFAVYYCQQRSHWPPITFGQGTRLEIK
As for B11, the Trimeric HA Binding: RLU in assay [2] amounted to 1050 RLU; in assay [4], 58800 RLU; in [5], 3240 RLU; in [6], 8950 RLU; in assay [7] it was 1450 RLU; in [15], 871 RLU. The Trimeric HA Binding: RLU in [9] came out at 2560 RLU; in assay [11], 3500 RLU; in assay [12], 2860 RLU; in [13], 15700 RLU; in assay [14], 53300 RLU.
